Experimental data from patent US8039432B2, “Method of treatment of diabetes and/or obesity with reduced nausea side effect” (Conjuchem, LLC, priority 2005, dated 2011).
Like-named read-outs stand apart in the source and are kept apart here.

Assays:
male Sprague-Dawley rats [1] = assay: Kaolin intake (pica) test; conditions: for kaolin intake after dosing relative to 0.9% NaCl: LiCl IP, exendin-4 and CJC-1134-PC 0.5 nmol/kg SC
Experimental: (§1) Ninety male Sprague-Dawley rats of 6 weeks in age were housed individually and given food and water ad libitum. Habituation to kaolin was achieved by offering fresh blocks of kaolin daily for 8 days before dosing. Rats were then assigned to nine treatment groups (n=10/group).
(§2) Immediately following injection, animals were offered a fresh kaolin block in addition to food and water. Kaolin intake was measured every hour for a four-hour period immediately after dosing, and also at 6, 8, and 24 hours post dose (FIG. 3).

subjects = conditions: subcutaneous injection, 1.5 nmol/kg body weight and higher; cited from earlier work
male Sprague-Dawley rats [2] = conditions: rat, in vivo
Source text: One model for studying gastrointestinal malaise in response to administration of a test agent is the conditioned taste aversion test (Peeters and Broekkamp, 1994, J. Steroid Biochem. Mol. Biol., 49:417-427). Conditioned taste aversion is a form of associative learning in which animals learn to avoid flavors of substances where initial ingestion of the substance was followed by illness. In conditioned taste aversion, animals learn to associate a flavor, or conditioned stimulus, with the aversive effects of an administered agent, or unconditioned stimulus. Following conditioned stimulus—unconditioned stimulus pairings, animals reduce their consumption of the conditioned stimulus, and/or show a preference for other tastes when later presented with the conditioned flavor. […] The conditioned stimulus was 0.1% saccharin flavored water with high palatability. […]
Following injection, all groups were given food ad libitum and 2 bottles of water. At 72 h and 96 h post dose, a choice of tap water or 0.1% saccharin solution (conditioned stimulus) was offered, and intake of both solutions was measured for 12 hours. Mean saccharin preference ratios, representing the percentage of saccharin solution consumed relative to total liquid intake, were determined for each group (FIGS. 1 and 2).

Sprague Dawley rats = assay: Rat toxicity study (7-day and 28-day); format: in vivo
Experimental: Immediately following injection, rats were housed individually, and food consumption and changes in body weights were monitored. […] However, by day 4, food consumption was similar to that observed in rats receiving vehicle only (FIG. 4). […] (FIG. 5).
Recombinant human albumin (rHA) was also dosed at 23 mg/kg as an additional control.

monkeys = assay: Monkey toxicity study (7-day and 28-day); format: in vivo
Experimental: Recombinant human albumin was also dosed at 9 mg/kg as an additional control.

[3] = test system: female diabetic db/db mice; format: in vivo, mouse; conditions: for abnormal clinical signs: mouse, in vivo
Experimental: Blood glycemia was recorded at the following time points: pre-dose, 1, 3, 6, 24, 30, 48, 52, 74 and 101 hours post dose using a handheld glucometer (Accu-check compact, Roche Diagnostics, Canada). Food and water intake were recorded at the following timepoints: 0 to 6, 6 to 24, 24 to 30, 30 to 48, 48 to 72 and 72 to 101 hours post dose.

[4] = test system: Male Zucker Diabetic Fatty (ZDF) rats; assay: Anti-obesity test in ZDF rats; format: in vivo, rat; conditions: for cumulative food intake relative to 0.9% NaCl group / cumulative weight gain compared to 0.9% NaCl: 25 days; for cumulative weight gain compared to 0.9% NaCl: four weekly SC injections, 100 and 200 nmol/kg; for day on which decrease in cumulative food intake reached statistical significance: relative to 0.9% NaCl group, weekly SC injections
Experimental: Control animal were injected with 0.9% NaCl. Animals were weighed twice a week and food intake was measured daily for the first week and four times a week thereafter for a total of 25 days. Statistical analysis was performed using two-way Analysis of Variance (ANOVA) followed by the Tukey's pair-wise comparison test. Significance was considered when P value was less than 0.05.

[5] = test system: patients with stable Type 2 diabetes; assay: Phase I/II single escalating dose clinical study of CJC-1134-PC; format: in vivo, human; conditions: for Nausea (%) / Vomiting (%): N=6
Experimental: Patients enrolled in the trial had HbA1c levels between 6.5% and 11%. Patients previously treated with oral anti-diabetic agents discontinued therapy at least 1 week prior to dosing. […] Injections were performed with a 29 gauge needle. Each cohort consisted of 7 patients (6 active, 1 placebo). The mean glucose values at baseline of the cohorts (without placebo) were 15.6, 12.2, 12.1, 11.2, 9.6 and 15.3 mmol/L, respectively.
The efficacy parameters were based on the group mean and individual mean glucose values. Glucose was measured 6 times per day (fasting, 2-hour post-breakfast, pre-lunch, 2-hour post-lunch, pre-dinner and bedtime) during the first week and 3 times per day (fasting, 2-hour post-breakfast and bedtime) for the remaining 5 weeks of the study. In addition, a placebo group was constructed for data analysis by pooling the patients (one per cohort) that received placebo during the study. […] At the third cohort (1250 micrograms), the mean glucose reduction from baseline for the first week was 19% (ranging from 15% to 24% with a mean reduction on day 7 of 20%), giving an average glucose value for the week of 9.8 mmol/L. This glucose reduction was significant against baseline (p=0.0007) and against placebo (p=0.0045). […] The glucose reductions of the subsequent cohorts were of similar magnitude and duration and confirmed this response. At the 2500 microgram cohort, the average glucose value for the first week was reduced to 9.5 mmol/L; the value for the 5000 microgram cohort for the first week was reduced to 8.4 mmol/L. (The American Diabetes Association (ADA) has a recommended target of HbA1C<7%; a mean daily glucose level of 9.5 mmol/L corresponds to an HbA1C level of 7%).

male Sprague-Dawley rats [6] = conditions: rat, in vivo; remark: listed apart in the source
Experimental: as §1, §2

[7] = 1250 μg (17.6 nmoles) single SC
[8] = 2500 μg (35.2 nmoles) single SC
[9] = 3750 μg (52.8 nmoles) single SC
[10] = 5000 μg (70.4 nmoles) single SC
[11] = first four cohorts (310, 620, 1250 and 2500 μg)

[Cl-].[Li+] [LiCl, Lithium chloride, reference compound]
kaolin intake after dosing relative to 0.9% NaCl (male Sprague-Dawley rats [1]): significant kaolin intake after 1 h

GLP-1: proglucagon-derived peptide secreted from intestinal L-cells; incretin
nausea and vomiting (subjects): lead to nausea and, less often, vomiting in a significant proportion of subjects

exendin-4(1-39) Lys^40 (ε-AEEA-MPA)-NH2 conjugated with albumin [CJC-1134-PC]
taste aversion response compared to unconjugated exendin-4 (male Sprague-Dawley rats [2]): significantly lower taste aversion response | clinical chemistry, hematology, urinalysis, organ weights, macroscopic evaluations (Sprague Dawley rats; rat 7-day study): no effects on clinical chemistry, hematology, urinalysis, or organ weights, or on macroscopic evaluations | mortality or serious signs of toxicity (Sprague Dawley rats; rat 7-day study, 1, 5 or 25 mg/kg/day SC): no mortality or serious signs of toxicity were observed | food consumption (Sprague Dawley rats; rat 7-day study, 5 and 25 mg/kg/day SC, similar to vehicle by day 4): dose dependent decrease in food consumption was observed at days 1-3 | macroscopic evaluations (Sprague Dawley rats; rat 28-day study): no effects on macroscopic evaluations | food consumption (Sprague Dawley rats; rat 28-day study, 25 mg/kg, comparable across groups by day 8): decrease in food consumption was observed at 25 mg/kg from days 1-7 | body weight (Sprague Dawley rats; rat 28-day study, 25 mg/kg, weight gain comparable days 4-28): Decreases in body weight were also observed at the 25 mg/kg/doses at days 1-4 | activity and fecal output (Sprague Dawley rats; rat 28-day study, following injections): transient decrease in activity and fecal output | tolerability (Sprague Dawley rats; rats, up to 25 mg/kg): generally well tolerated | clinical chemistry, hematology, urinalysis, organ weights, macroscopic evaluations (monkeys; monkey 7-day study): no effects on clinical chemistry, hematology, urinalysis, or organ weights, or on macroscopic evaluations | mortality or serious signs of toxicity (monkeys; monkey 7-day study, 0.4, 2 and 10 mg/kg/day SC): no mortality or serious signs of toxicity were observed | food consumption (number of biscuits per day) (monkeys; monkey 7-day study, days 1-3, all groups including vehicle control, comparable by days 4-7): Initial decreases in food consumption | body weight (monkeys; monkey 7-day study, moderately attenuated by day 7): dose-dependent decrease in body weight by day 3 | body weight (monkeys; monkey 28-day study): dose dependent decrease in body weight was observed throughout the 28-day period | clinical signs (monkeys; monkey 28-day study): transient decrease in activity, hunched posture, and decreased fecal output | macroscopic evaluations (monkeys; monkey 28-day study): no effects on macroscopic evaluations | food consumption (monkeys; monkey 28-day study, 10 mg/kg, comparable across groups by day 7): significantly reduced at 10/mg/kg on days 2 and 3 | tolerability (monkeys; monkeys, up to 10 mg/kg): generally well tolerated | blood glucose levels compared to 100 nmol/kg unconjugated exendin-4 ([3]; 100 nmol/kg single SC, 24 h post dose): significantly lower | blood glucose levels compared to unconjugated exendin-4 ([3]; 100 nmol/kg single SC, out to 48 h post dose): remained lower | food and water consumption compared to unconjugated exendin-4 ([3]; 24-47 h post dose): remained lower | food and water consumption compared to unconjugated exendin-4 ([3]; after 24 hours): significantly reduced | blood glucose levels compared to unconjugated exendin-4 ([3]; after 72 h): comparable | food consumption relative to exendin-4 treated mice ([3]; after 74 h, maintained out to 101 h post dose): only moderately lower | abnormal clinical signs [3]: No abnormal clinical signs | water consumption relative to exendin-4 treated mice ([3]; out to 101 h post dose): moderately lower | day from which reduction of cumulative weight gain was statistically significant ([4]; 100 nmol/kg, p≦0.05): 11 days | day from which reduction of cumulative weight gain was statistically significant ([4]; 200 nmol/kg, p≦0.01): 4 days | cumulative food intake relative to 0.9% NaCl group [4]: Reduction in cumulative food intake | cumulative weight gain compared to 0.9% NaCl [4]: significantly reduced | day on which decrease in cumulative food intake reached statistical significance [4]: 9 days | Nausea (%) ([5]; 310 μg (4.4 nmoles) single SC): 0% | Vomiting (%) ([5]; 310 μg (4.4 nmoles) single SC): 0% | Nausea (%) ([5]; 620 μg (8.7 nmoles) single SC): 0% | Vomiting (%) ([5]; 620 μg (8.7 nmoles) single SC): 0% | Nausea (%) [5, 7]: 0% | Vomiting (%) [5, 7]: 0% | Nausea (%) [5, 8]: 0% | Vomiting (%) [5, 8]: 0% | Nausea (%) [5, 9]: 17% | Vomiting (%) [5, 9]: 17% | Nausea (%) [5, 10]: 50% | Vomiting (%) [5, 10]: 17% | average glucose value for the first week ([5]; 1250 micrograms): 9.8 mmol/L | duration of glucose lowering effect ([5]; 1250 micrograms): more than 2 weeks | mean glucose reduction from baseline on day 7 ([5]; 1250 micrograms): 20% | mean glucose reduction from baseline for the first week ([5]; 1250 micrograms, p=0.0007 vs baseline, p=0.0045 vs placebo): 19% | average glucose value for the first week ([5]; 2500 microgram cohort): 9.5 mmol/L | average glucose value for the first week ([5]; 5000 microgram cohort): 8.4 mmol/L | symptoms (headache, dizziness, light-headedness without documented hypoglycaemia) ([5]; 5000 microgram cohort): symptoms linked to an over stimulation of the GLP-1 receptors were observed | injection site reactions [5, 11]: no injection site reactions | safety and tolerability [5, 11]: no safety or tolerability issues | efficacy on glucose ([5]; first two cohorts (310 and 620 micrograms)): Limited or no efficacy | average weight loss at day 7 ([5]; first two non-active cohorts): 0.4 kg | gastric stasis ([5]; in each of the 3750 and 5000 μg cohorts, post-lunch on day one): one mild and transient case of short-term gastric stasis | dose linearity of plasma concentrations ([5]; single SC dose, 310-5000 μg): dose linear | average weight loss at day 7 ([5]; three following cohorts where activity was observed on glucose): 0.9 kg | kaolin intake after dosing relative to 0.9% NaCl (male Sprague-Dawley rats [1]): kaolin intake was only moderately increased after 6 h | kaolin intake relative to 0.9% NaCl, first 2 h (male Sprague-Dawley rats [1]; first 2 h post dose): Minimal kaolin intake

exendin-4(1-39) [reference compound]
conditioned taste aversion (saccharin preference ratio compared to vehicle control) (male Sprague-Dawley rats [2]): decreased significantly the preference saccharine ratio | abnormal clinical signs [3]: No abnormal clinical signs | cumulative food intake relative to 0.9% NaCl group [4]: Reduction in cumulative food intake | cumulative weight gain compared to 0.9% NaCl [4]: not significant | day on which decrease in cumulative food intake reached statistical significance [4]: 16 days | kaolin intake relative to 0.9% NaCl, first 2 h (male Sprague-Dawley rats [6]): Minimal kaolin intake
